Substitutions are numbered along the chain they refer to. *1 amine or outer side, *2 acyl side, *3 side chain or, on linkers, in order; H or OH if unused. Where no end group is shown, it is not given here. Side-chain parts run from the residue outwards. [ ]: non-standard residue; d: D form. The star is where a group is joined. αMePhe(2-F) = C[C@](N)(Cc1ccccc1F)C(=O)O; γGlu = O=C(O)[C@H](CCC(=O)[*:2])N[*:1]; C14 diacid = O=C(O)CCCCCCCCCCCCC(=O)*; αMeY = C[C@](N)(Cc1ccc(O)cc1)C(=O)O; 4Pal = N[C@@H](Cc1ccncc1)C(=O)O; αMeL = CC(C)C[C@](C)(N)C(=O)O; Lauroyl = CCCCCCCCCCCC(=O)*; Orn = NCCC[C@H](N)C(=O)O; AEEA = NCCOCCOCC(=O)O; Aib = CC(C)(N)C(=O)O
B1: Example 421 (peptide)
peptide: YXEGTXTSDKXIXLDXKAQXEFIXXLIEGGPSSGAPPPS
modifications: Y-Aib-EGT-αMeF(2F)-TSDK((2-[2-(2-Amino-ethoxy)-ethoxy]-acetyl)3-(γ-Glu)-CO-(CH2)10-CH3)-Aib-I-αMeL-LD-Orn-K((2-[2-(2-Amino-ethoxy)-ethoxy]-acetyl)3-(γ-Glu)-CO-(CH2)10-CH3)AQ-Aib-EFI-(D-Glu)-αMeY-LIEGGPSSGAPPPS-NH2
B2: Example 414 (peptide)
peptide: B1 peptide with K10X, E21X, E28K
modifications: Y-Aib-EGT-αMeF(2F)-TSD-4Pal-Aib-I-αMeL-LD-Orn-K((2-[2-(2-Amino-ethoxy)-ethoxy]-acetyl)2-(γ-Glu)-CO-(CH2)10-CH3)AQ-Aib-Orn-FI-(D-Glu)-αMeY-LIK((2-[2-(2-Amino-ethoxy)-ethoxy]-acetyl)2-(γ-Glu)-CO-(CH2)10-CH3)GGPSSGAPPPS-NH2
B3: Example 418 (peptide)
peptide: YXEGTXTSDXXIXLDXKAQXXFIXXLIEGGPSSGAPPPSK
modifications: Y-Aib-EGT-αMeF(2F)-TSD-4Pal-Aib-I-αMeL-LD-Orn-K((2-[2-(2-Amino-ethoxy)-ethoxy]-acetyl)2-(γ-Glu)-CO-(CH2)10-CH3)AQ-Aib-Orn-FI-(D-Glu)-αMeY-LIEGGPSSGAPPPSK((2-[2-(2-Amino-ethoxy)-ethoxy]-acetyl)2-(γ-Glu)-CO-(CH2)10-CH3)-NH2
B4: Example 420 (peptide)
peptide: B3 peptide
modifications: Y-Aib-EGT-αMeF(2F)-TSD-4Pal-Aib-I-αMeL-LD-Orn-K((2-[2-(2-Amino-ethoxy)-ethoxy]-acetyl)2-(γ-Glu)-CO-(CH2)10-CH3)AQ-Aib-4Pal-FI-(D-Glu)-αMeY-LIEGGPSSGAPPPSK((2-[2-(2-Amino-ethoxy)-ethoxyl-acetyl)2-(γ-Glu)-CO-(CH2)10-CH3)-NH2
B5: Example 407 (peptide)
peptide: Y[Aib]EGT[αMePhe(2-F)]TSDV[Aib]I[αMeL]LD[Orn]K([AEEA-AEEA-γGlu-C14 diacid])AQ[Aib]K([AEEA-AEEA-γGlu-C14 diacid])FI[dE][αMeY]LI[Orn]GGPSSGAPPPS-NH2
modifications: N-terminus assumed
SMILES: CC[C@H](C)[C@H](NC(=O)[C@H](CC(C)C)NC(=O)[C@](C)(Cc1ccc(O)cc1)NC(=O)[C@@H](CCC(=O)O)NC(=O)[C@@H](NC(=O)[C@H](Cc1ccccc1)NC(=O)[C@H](CCCCNC(=O)COCCOCCNC(=O)COCCOCCNC(=O)CC[C@H](NC(=O)CCCCCCCCCCCCC(=O)O)C(=O)O)NC(=O)C(C)(C)NC(=O)[C@H](CCC(N)=O)NC(=O)[C@H](C)NC(=O)[C@H](CCCCNC(=O)COCCOCCNC(=O)COCCOCCNC(=O)CC[C@H](NC(=O)CCCCCCCCCCCCC(=O)O)C(=O)O)NC(=O)[C@H](CCCN)NC(=O)[C@H](CC(=O)O)NC(=O)[C@H](CC(C)C)NC(=O)[C@](C)(CC(C)C)NC(=O)[C@@H](NC(=O)C(C)(C)NC(=O)[C@@H](NC(=O)[C@H](CC(=O)O)NC(=O)[C@H](CO)NC(=O)[C@@H](NC(=O)[C@](C)(Cc1ccccc1F)NC(=O)[C@@H](NC(=O)CNC(=O)[C@H](CCC(=O)O)NC(=O)C(C)(C)NC(=O)[C@@H](N)Cc1ccc(O)cc1)[C@@H](C)O)[C@@H](C)O)C(C)C)[C@@H](C)CC)[C@@H](C)CC)C(=O)N[C@@H](CCCN)C(=O)NCC(=O)NCC(=O)N1CCC[C@H]1C(=O)N[C@@H](CO)C(=O)N[C@@H](CO)C(=O)NCC(=O)N[C@@H](C)C(=O)N1CCC[C@H]1C(=O)N1CCC[C@H]1C(=O)N1CCC[C@H]1C(=O)N[C@@H](CO)C(N)=O
B6: Example 399 (peptide)
peptide: Y[Aib]EGT[αMePhe(2-F)]TSDV[Aib]I[αMeL]LD[Orn]K([AEEA-γGlu-C14 diacid])AQ[Aib]EFI[dE][αMeY]LIK([AEEA-γGlu-C14 diacid])GGPSSGAPPPS-NH2
modifications: N-terminus assumed
SMILES: CC[C@H](C)[C@H](NC(=O)[C@H](CC(C)C)NC(=O)[C@](C)(Cc1ccc(O)cc1)NC(=O)[C@@H](CCC(=O)O)NC(=O)[C@@H](NC(=O)[C@H](Cc1ccccc1)NC(=O)[C@H](CCC(=O)O)NC(=O)C(C)(C)NC(=O)[C@H](CCC(N)=O)NC(=O)[C@H](C)NC(=O)[C@H](CCCCNC(=O)COCCOCCNC(=O)CC[C@H](NC(=O)CCCCCCCCCCCCC(=O)O)C(=O)O)NC(=O)[C@H](CCCN)NC(=O)[C@H](CC(=O)O)NC(=O)[C@H](CC(C)C)NC(=O)[C@](C)(CC(C)C)NC(=O)[C@@H](NC(=O)C(C)(C)NC(=O)[C@@H](NC(=O)[C@H](CC(=O)O)NC(=O)[C@H](CO)NC(=O)[C@@H](NC(=O)[C@](C)(Cc1ccccc1F)NC(=O)[C@@H](NC(=O)CNC(=O)[C@H](CCC(=O)O)NC(=O)C(C)(C)NC(=O)[C@@H](N)Cc1ccc(O)cc1)[C@@H](C)O)[C@@H](C)O)C(C)C)[C@@H](C)CC)[C@@H](C)CC)C(=O)N[C@@H](CCCCNC(=O)COCCOCCNC(=O)CC[C@H](NC(=O)CCCCCCCCCCCCC(=O)O)C(=O)O)C(=O)NCC(=O)NCC(=O)N1CCC[C@H]1C(=O)N[C@@H](CO)C(=O)N[C@@H](CO)C(=O)NCC(=O)N[C@@H](C)C(=O)N1CCC[C@H]1C(=O)N1CCC[C@H]1C(=O)N1CCC[C@H]1C(=O)N[C@@H](CO)C(N)=O

These binders were tested against human glucagon receptor (human) (UniProt P47871) (assay: cell-based or functional assay).
With B1 the cAMP EC50 was over 9950 nM. Binder B2 has a cAMP EC50 of over 9950 nM. Binder B3 has a cAMP EC50 of over 9950 nM. Work on B4 yielded a cAMP EC50 of over 9950 nM. B5 was tested, and the cAMP EC50 was over 9950 nM. Work on Y[Aib]EGT[αMePhe(2-F)]TSDK([AEEA-AEEA-γGlu-Lauroyl])[Aib]I[αMeL]LD[Orn]K([AEEA-AEEA-γGlu-Lauroyl])AQ[Aib][4Pal]FI[dE][αMeY]LIEGGPSSGAPPPS-NH2 [Example 415] yielded a cAMP EC50 of over 9950 nM. Binder B6 has a cAMP EC50 of over 9950 nM.

The binders below were run against T1, human GIP receptor (human) (UniProt P48546) (assay: cell-based or functional assay).
T1 sequence (looked up): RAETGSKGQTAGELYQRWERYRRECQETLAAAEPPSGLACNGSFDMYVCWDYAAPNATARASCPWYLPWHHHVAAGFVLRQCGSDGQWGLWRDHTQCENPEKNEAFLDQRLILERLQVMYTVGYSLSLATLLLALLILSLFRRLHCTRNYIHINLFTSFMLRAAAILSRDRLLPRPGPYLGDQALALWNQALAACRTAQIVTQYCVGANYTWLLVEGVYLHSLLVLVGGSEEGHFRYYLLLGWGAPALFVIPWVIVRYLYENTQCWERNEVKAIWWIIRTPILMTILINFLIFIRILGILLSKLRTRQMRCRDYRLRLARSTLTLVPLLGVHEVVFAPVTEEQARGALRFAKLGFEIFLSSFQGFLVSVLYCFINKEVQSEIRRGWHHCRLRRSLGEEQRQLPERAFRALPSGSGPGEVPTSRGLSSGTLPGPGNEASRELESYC
Work on B1 yielded a cAMP EC50 of 0.00618 nM and a cAMP Emax of 100%. Work on B2 yielded a cAMP EC50 of 0.00961 nM and a cAMP Emax of 98.4%. B3 showed a cAMP EC50 of 0.00599 nM and a cAMP Emax of 91%. Work on B4 yielded a cAMP EC50 of 0.00964 nM and a cAMP Emax of 101%. With B5 the cAMP EC50 was 0.0114 nM and the cAMP Emax was 99.2%. For Y[Aib]EGT[αMePhe(2-F)]TSDK([AEEA-AEEA-γGlu-Lauroyl])[Aib]I[αMeL]LD[Orn]K([AEEA-AEEA-γGlu-Lauroyl])AQ[Aib][4Pal]FI[dE][αMeY]LIEGGPSSGAPPPS-NH2 [Example 415], the cAMP EC50 was 0.00991 nM and the cAMP Emax was 101%. B6 was tested, and the cAMP EC50 was 0.0186 nM and the cAMP Emax was 98.4%.

These binders were tested against hGLP-1R (Homo sapiens, UniProt P43220) (assay: cell-based or functional assay).
In the case of B1, the cAMP EC50 is reported as 0.057 nM and the cAMP Emax is reported as 101%. B2 gave a cAMP EC50 of 0.119 nM. B3 showed a cAMP EC50 of 0.0603 nM and a cAMP Emax of 93.7%. With B4 the cAMP EC50 was 0.123 nM and the cAMP Emax was 99.7%. Binder B5 has a cAMP EC50 of 0.156 nM and a cAMP Emax of 100%. Binder Y[Aib]EGT[αMePhe(2-F)]TSDK([AEEA-AEEA-γGlu-Lauroyl])[Aib]I[αMeL]LD[Orn]K([AEEA-AEEA-γGlu-Lauroyl])AQ[Aib][4Pal]FI[dE][αMeY]LIEGGPSSGAPPPS-NH2 [Example 415] has a cAMP EC50 of 0.122 nM and a cAMP Emax of 109%. B6 showed a cAMP EC50 of 0.259 nM and a cAMP Emax of 91.9%.

These binders were tested against human GLP-1 receptor (human, UniProt P43220 24-463) (assay: cell-based or functional assay).
For B1, the “cAMP EC50 (1.0% HSA)” value was 2.01 nM. B2 was tested, and the “cAMP EC50 (1.0% HSA)” value was 3.24 nM. With B3 the “cAMP EC50 (1.0% HSA)” value was 1.72 nM and the “cAMP Emax (1.0% HSA)” value was 98.8%. For B4, the “cAMP EC50 (1.0% HSA)” value was 10 nM and the “cAMP Emax (1.0% HSA)” value was 109%. B5 was tested, and the “cAMP EC50 (1.0% HSA)” value was 12.4 nM and the “cAMP Emax (1.0% HSA)” value was 97.2%. In the case of Y[Aib]EGT[αMePhe(2-F)]TSDK([AEEA-AEEA-γGlu-Lauroyl])[Aib]I[αMeL]LD[Orn]K([AEEA-AEEA-γGlu-Lauroyl])AQ[Aib][4Pal]FI[dE][αMeY]LIEGGPSSGAPPPS-NH2 [Example 415], the “cAMP EC50 (1.0% HSA)” value is reported as 5.72 nM. In the case of B6, the “cAMP EC50 (1.0% HSA)” value is reported as 43.6 nM and the “cAMP Emax (1.0% HSA)” value is reported as 89.7%.

The binders below were run against human glucagon receptor (human, UniProt P47871 26-477) (assay: cell-based or functional assay).
Sequence of human glucagon receptor (P47871 26-477): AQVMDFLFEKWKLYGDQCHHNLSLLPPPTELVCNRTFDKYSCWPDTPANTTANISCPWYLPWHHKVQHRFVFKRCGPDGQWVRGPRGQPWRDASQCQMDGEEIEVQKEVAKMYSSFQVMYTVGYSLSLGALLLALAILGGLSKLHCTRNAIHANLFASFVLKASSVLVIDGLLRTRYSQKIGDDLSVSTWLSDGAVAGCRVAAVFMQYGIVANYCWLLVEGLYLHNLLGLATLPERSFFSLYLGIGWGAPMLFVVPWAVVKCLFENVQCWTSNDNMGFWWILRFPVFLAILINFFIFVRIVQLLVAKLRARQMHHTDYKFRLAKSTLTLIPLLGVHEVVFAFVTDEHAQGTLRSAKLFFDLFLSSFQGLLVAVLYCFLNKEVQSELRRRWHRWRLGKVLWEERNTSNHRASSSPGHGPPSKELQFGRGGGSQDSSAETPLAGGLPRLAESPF
For B1, the “cAMP EC50 (1.0% HSA)” value was over 9950 nM. B2 was tested, and the “cAMP EC50 (1.0% HSA)” value was over 9950 nM. B3 was tested, and the “cAMP EC50 (1.0% HSA)” value was over 9950 nM. B4 was tested, and the “cAMP EC50 (1.0% HSA)” value was over 9950 nM. For B5, the “cAMP EC50 (1.0% HSA)” value was over 9950 nM. With Y[Aib]EGT[αMePhe(2-F)]TSDK([AEEA-AEEA-γGlu-Lauroyl])[Aib]I[αMeL]LD[Orn]K([AEEA-AEEA-γGlu-Lauroyl])AQ[Aib][4Pal]FI[dE][αMeY]LIEGGPSSGAPPPS-NH2 [Example 415] the “cAMP EC50 (1.0% HSA)” value was over 9950 nM. For B6, the “cAMP EC50 (1.0% HSA)” value was over 9950 nM.

Each binder was assayed against T2, human GIP receptor (human, UniProt P48546 22-466) (assay: cell-based or functional assay).
T2 sequence (looked up): T1 sequence (looked up)
B1 was tested, and the “cAMP EC50 (1.0% HSA)” value was 0.164 nM and the “cAMP Emax (1.0% HSA)” value was 98%. For B2, the “cAMP EC50 (1.0% HSA)” value was 0.274 nM and the “cAMP Emax (1.0% HSA)” value was 92.2%. B3 was tested, and the “cAMP EC50 (1.0% HSA)” value was 0.126 nM. In the case of B4, the “cAMP EC50 (1.0% HSA)” value is reported as 0.351 nM. For B5, the “cAMP EC50 (1.0% HSA)” value was 1.87 nM and the “cAMP Emax (1.0% HSA)” value was 95.4%. For Y[Aib]EGT[αMePhe(2-F)]TSDK([AEEA-AEEA-γGlu-Lauroyl])[Aib]I[αMeL]LD[Orn]K([AEEA-AEEA-γGlu-Lauroyl])AQ[Aib][4Pal]FI[dE][αMeY]LIEGGPSSGAPPPS-NH2 [Example 415], the “cAMP EC50 (1.0% HSA)” value was 0.492 nM. B6 was tested, and the “cAMP EC50 (1.0% HSA)” value was 16.2 nM and the “cAMP Emax (1.0% HSA)” value was 86.8%.

Reference: patent US20230265151A1, “GIP/GLP1 CO-AGONIST COMPOUNDS” (priority 2020, published 2023)
